From patent US20190055314A1 (ADAGENE, published 2019)
Substitutions are numbered along the chain they refer to.

B1: Fab 5349 (Fab, V domains shown)
VH: EVQLVESGGGLVQPGGSLRLSCAASGYSITSGHYWAWIRQAPGKGLEWVSAISGSGSSTYYADSVKGRFTISRDNSKNTLYLQLNSLRAEDTAVYYCARGGSDTVLGDWFAYWGQGTLVTVSS
VL: DIQLTQSPSSLSASVGDRVTITCRASQGISSSLAWYQQKPGKAPKLLIYDASNLETGVPSRFSGSGSGTDFTLTISSLQPEDFATYYCQQGYSTWTFGQGTKVEIKR
notes: Fab from E. coli; also called VH24/VL24
B2: Fab 4137 (Fab, V domains shown)
VH: EVQLVESGGGLVQPGGSLRLSCAASGYSITSGYYWGWIRQAPGKGLEWVSGISGSGSSTYYADSVKGRFTISRDNSKNTLYLQLNSLRAEDTAVYYCARGTYSFDVWGQGTLVTVSS
VL: B1 VL with S32D, D50A, N53T, E55Q, T56S, G91Y, T94Y, W95I
notes: Fab from E. coli; also called VH7/VL7
B3: Fab 4134 (Fab, V domains shown)
VH: EVQLVESGGGLVQPGGSLRLSCAASGYSISSGHHWGWIRQAPGKGLEWVSGISGYGDTTYYADSVKGRFTISRDNSKNTLYLQLNSLRAEDTAVYYCARDPYSSGSGYFDYWGQGTLVTVSS
VL: B1 VL with S32A, A34G, D50A, N53S, E55Q, T56S, G91S, S93Y
notes: Fab from E. coli; also called VH6/VL6
B4: Fab 7097 (Fab, V domains shown)
VH: B1 VH with T30S, Y34H, A36D, A51Y, S55A, S57D, S58T, G100E, T104A
VL: DIQLTQSPSSLSASVGDRVTITCRASQGISSYLAWYQQKPGKAPKLLIYDASNLETGVPSRFSGSGSGTDFTLTISSLQPEDFATYYCQQYYSTPLTFGQGTKVEIKR
notes: Fab from E. coli; also called VH49/VL49
B5: Fab 4076 (Fab, V domains shown)
VH: EVQLVESGGGLVQPGGSLRLSCAASGYSITSGYHWGWIRQAPGKGLEWVSAISGAGGSTYYADSVKGRFTISRDNSKNTLYLQLNSLRAEDTAVYYCARDGYGGSYFDYWGQGTLVTVSS
VL: B1 VL with R24Q, G28D, S31T, S32F, N53S, T56S, G91A, T94I
notes: Fab from E. coli; also called VH4/VL4
B6: Fab 5417 (Fab, V domains shown)
VH: EVQLVESGGGLVQPGGSLRLSCAASGFSLSTSGVGVAWIRQAPGKGLEWVSSISGAGGTTYYADSVKGRFTISRDNSKNTLYLQLNSLRAEDTAVYYCARGGSTAVTGDWFDYWGQGTLVTVSS
VL: B1 VL with S31P, S32Y, L54R, E55A, V58I, T94L
notes: Fab from E. coli; also called VH39/VL39
B7: Fab 5346 (Fab, V domains shown)
VH: B6 VH with S32G, A37G, S52G, A56Y, G58S, G101E, T104D, T107A
VL: B1 VL with G28D, S30R, S32Y, L54R, E55A, V58I, T94I
notes: Fab from E. coli; also called VH22/VL22
B8: Fab 5407 (Fab, V domains shown)
VH: B6 VH with G16A, S32G, A56Y, G58S, G101E, T104D, T107L, D112G
VL: B1 VL with R24Q, G28D, S30T, S31T, S32Y, L54R, E55A, V58I, S93Y, T94L
notes: Fab from E. coli; also called VH35/VL35
B9: Fab 5363 (Fab, V domains shown)
VH: B1 VH with T30S, A36T, T104A
VL: B1 VL with I29V, S30G, S32Y, S93Q, T94L
notes: Fab from E. coli; also called VH29/VL29
B10: Fab 3760 (Fab, V domains shown)
VH: EVQLVESGGGLVQPGGSLRLSCAASGFTFTSYGIHWVRQAPGKGLEWVSGISGAGDTTYYADSVKGRFTISRDNSKNTLYLQLNSLRAEDTAVYYCARERDYDFDYWGQGTLVTVSS
VL: B4 VL with G28S, I29V, Y91S, P95S, L96H
notes: Fab from E. coli; also called VH1/VL1
B11: Fab 7159 (Fab, V domains shown)
VH: EVQLVESGGGLVQPGGSLRLSCAASGFSLSTSGVGVGWIRQAPGKGLEWIGDIYHSGSTYYNPSLKSRVTISRDNSKNTLYLQLNSLRAEDTAVYYCAREGSTAVLGDWFAYWGQGTLVTVSS
VL: B4 VL with G28S, A34N, D50A, N53T, E55Q, T56S
notes: Fab from E. coli; also called VH58/VL58
B12: Fab 7080 (Fab, V domains shown)
VH: B6 VH with S32G, A37G, S52Y, G101E, T104D, A105T, T107L, D112A
VL: B4 VL with S93T
notes: Fab from E. coli; also called VH43/VL43
B13: Fab 7105 (Fab, V domains shown)
VH: B6 VH with S32G, A37G, S52Y, G58S, G101E, T104D, A105T, T107L, D112A
VL: B4 VL
notes: Fab from E. coli; also called VH51/VL51
B14: Fab 7166 (Fab, V domains shown)
VH: B11 VH with G35A, G37A, S58N, E100G, T103D, A104T, L106V
VL: B4 VL with G28S, A34N, D50A, N53T, E55Q, T56S
notes: Fab from E. coli; also called VH60/VL60
B15: Fab 7081 (Fab, V domains shown)
VH: B6 VH with S32G, A37G, S52Y, G101E, T104D, T107L, D112A
VL: B4 VL with S93T
notes: Fab from E. coli; also called VH44/VL44
B16: Fab 7079 (Fab, V domains shown)
VH: B6 VH with A56Y, G101E, T104D, A105T, T107L, D112A
VL: B4 VL with S93T
notes: Fab from E. coli; also called VH42/VL42
B17: Fab 7100 (Fab, V domains shown)
VH: B6 VH with A37G, S52Y, A56D, T59S, G101E, T104D, A105T, T107L, D112A
VL: B4 VL
notes: Fab from E. coli; also called VH50/VL50
B18: Fab 7131 (Fab, V domains shown)
VH: B6 VH with S32G, A37G, S52Y, G58D, T59S, G101E, T104D, A105T, T107L, D112A
VL: B4 VL with I29V, S93T
notes: Fab from E. coli; also called VH55/VL55
B19: Fab 7109 (Fab, V domains shown)
VH: B6 VH with A37S, S52Y, A56S, G58D, G101E, T104D, T107L, D112A
VL: B4 VL
notes: Fab from E. coli; also called VH52/VL52
B20: Fab 7077 (Fab, V domains shown)
VH: B6 VH with S32G, S52Y, A56S, G58D, G101E, T104D, A105T, T107V, D112A
VL: B4 VL with S93T
notes: Fab from E. coli; also called VH40/VL40
B21: Fab 7090 (Fab, V domains shown)
VH: B6 VH with S32G, S52Y, A56Y, G101E, T107L, D112A
VL: B4 VL
notes: Fab from E. coli; also called VH47/VL47
B22: Fab 7135 (Fab, V domains shown)
VH: B6 VH with S32G, A37G, A56S, T59S, G101E, T104D, A105T, T107L, D112A
VL: B4 VL with I29V, S93T
notes: Fab from E. coli; also called VH57/VL57
B23: Fab 7120 (Fab, V domains shown)
VH: B6 VH with A37G, S52Y, A56D, G58D, G101E, A105T, T107L, D112A
VL: B4 VL
notes: Fab from E. coli; also called VH53/VL53
B24: Fab 7128 (Fab, V domains shown)
VH: B6 VH with S32G, S52Y, A56D, G101E, T104D, A105T, T107L, D112A
VL: B4 VL with Y91S
notes: Fab from E. coli; also called VH54/VL54
B25: Fab 7078 (Fab, V domains shown)
VH: B6 VH with S32G, A37G, S52Y, A56D, G58D, G101E, T104D, A105T, T107A, D112A
VL: B4 VL with S93T
notes: Fab from E. coli; also called VH41/VL41
B26: Fab 7163 (Fab, V domains shown)
VH: B11 VH with G37T, G46S, N62S, T103D, L106A, A111D
VL: B4 VL with G28S, A34N, D50A, N53T, E55Q, T56S
notes: Fab from E. coli; also called VH59/VL59
B27: Fab 7133 (Fab, V domains shown)
VH: B6 VH with A56Y, T80R, G101E, T104D, A105T, T107L, D112A
VL: B4 VL with I29V, S93T
notes: Fab from E. coli; also called VH56/VL56
B28: Fab 7092 (Fab, V domains shown)
VH: B6 VH with V34M, A37G, S52Y, A56Y, G101E, T104D, A105V, T107A, D112A
VL: B4 VL
notes: Fab from E. coli; also called VH48/VL48
B29: Fab 7087 (Fab, V domains shown)
VH: B6 VH with S32G, A37G, S52Y, A56D, G58D, G101E, T107L, D112A
VL: B4 VL with S93T
notes: Fab from E. coli; also called VH45/VL45
B30: Fab 7088 (Fab, V domains shown)
VH: B6 VH with A37G, S52Y, A56D, T59S, G101E, T107V, D112A
VL: B4 VL with S93T
notes: Fab from E. coli; also called VH46/VL46
B31: Fab 4079 (Fab, V domains shown)
VH: EVQLVESGGGLVQPGGSLRLSCAASGFTFTGYWIHWVRQAPGKGLEWVGRIRSKTDGYTTEYAAPVKGRFTISRDNSKNTLYLQLNSLRAEDTAVYYCARLGGHWYFDVWGQGTLVTVSS
VL: B4 VL with G28S, S30G, S31R, A34N, Q89E, Y91P, Y92L, S93E, T94L, L96R
notes: Fab from E. coli; also called VH5/VL5

Biological target: T1, CD137-hisFc fusion protein (Sino Biological Cat 10041-H03H) (human, UniProt Q07011 24-186)
T1 construct: Bought; also called recombinant human CD137 (fused with human Fc and His tag); not shown: His tag and human Fc
Assay: BLI Octet, Fab

| Binder | Kd [nM] | koff [s⁻¹] | kon [M⁻¹ s⁻¹] |
| --- | --- | --- | --- |
| B1 | 6.2 | 0.00101 | 162000 |
| B2 | < 0.001 | < 1e-07 | 85600 |
| B3 | 13 | 0.000769 | 59300 |
| B4 | 24.3 | 0.0132 | 542000 |
| B5 | 7.44 | 0.000475 | 63800 |
| B6 | 40.4 | 0.00231 | 57200 |
| B7 | 16.1 | 0.00977 | 605000 |
| B8 | 1.76 | 0.000437 | 248000 |
| B9 | 9.87 | 0.000826 | 83700 |
| B10 | 12.6 | 0.00444 | 352000 |
| B11 | 37.9 | 0.00403 | 106000 |
| B12 | 24.4 | 0.00746 | 306000 |
| B13 | 33.3 | 0.011 | 330000 |
| B14 | 12.4 | 0.00429 | 345000 |
| B15 | 43.1 | 0.0123 | 287000 |
| B16 | 29.9 | 0.003 | 100000 |

| Binder | Kd [nM] | koff [s⁻¹] | kon [M⁻¹ s⁻¹] |
| --- | --- | --- | --- |
| B17 | 35 | 0.0162 | 462000 |
| B18 | 30.4 | 0.0081 | 266000 |
| B19 | 32 | 0.00555 | 173000 |
| B20 | 18.8 | 0.00934 | 498000 |
| B21 | 55.5 | 0.0173 | 312000 |
| B22 | 31.7 | 0.00322 | 102000 |
| B23 | 34.5 | 0.00911 | 264000 |
| B24 | 39.7 | 0.0123 | 309000 |
| B25 | 25.2 | 0.0087 | 345000 |
| B26 | 12.6 | 0.00378 | 299000 |
| B27 | 40.3 | 0.00405 | 101000 |
| B28 | 45.7 | 0.0197 | 431000 |
| B29 | 69.6 | 0.00855 | 123000 |
| B30 | 43.6 | 0.0111 | 255000 |
| B31 | 31.5 | 0.00219 | 69300 |
